Reference: article PMC4104964

Molecular target: yeast Mediator (yMED), core, devoid of the CKM (yeast (endogenous in strain BJ2168)) (UniProt P38782)
Test: single-particle EM

fraction of single yMED images with GST-CTD density: 10%
Substance: recombinant GST-labeled CTD of RNAPII (from UniProt P04050 1-1733) (domain or fragment)
